In patent US20030124108A1:

Target: purified PLD1 (isoform not distinguished in Example 4) (human)
Assay: cell-based or functional assay

Substance	activation of PLD1 at a maximally effective concentration (ARF1 4.7 M as printed)	half-maximal activation of PLD1 activity (headgroup release assay)	stimulation of PLD1 activity	activation of PLD1 at a maximally effective concentration (RhoA 3.8 M as printed)	activation of PLD1 at a maximally effective concentration (cdc42 5.5 M as printed)	activation of PLD1 at a maximally effective concentration (PMA-activated PKC- 0.043 M as printed)
human ADP-ribosylation factor 1 (ARF1) (from UniProt P84077 2-181)	49 fold	0.2 M	50 fold			
human RhoA with … at the amino terminus (from UniProt P61586 1-190)		1 M	10 fold	13 fold		
human cdc42 with … at the amino terminus (from UniProt P60953 1-188)		1 M	5 fold		10 fold	
human protein kinase C- (isoform letter lost in print) (from UniProt P17252 2-672) (enzyme)						28 fold
